In PMC7992120 (2018) one finds Ki data, which are given here for 1 molecule.

The target in this assay is linearized DAKD (N-methyl F6) (Homo sapiens, backbone amide N-methylation at F6 of peptide). Briefly: radioligand competition binding. On the technique in general: In a radioligand displacement assay an active substance lowers the binding of a labelled ligand.

B1: B1 bradykinin receptor (B1R) (protein)
chain: MASSWPPLELQSSNQSQLFPQNATACDNAPEAWDLLHRVLPTFIISICFFGLLGNLFVLLVFLLPRRQLNVAEIYLANLAASDLVFVLGLPFWAENIWNQFNWPFGALLCRVINGVIKANLFISIFLVVAISQDRYRVLVHPMASRRQQRRRQARVTCVLIWVVGGLLSIPTFLLRSIQAVPDLNITACILLLPHEAWHFARIVELNILGFLLPLAAIVFFNYHILASLRTREEVSRTRCGGRKDSKTTALILTLVVAFLVCWAPYHFFAFLEFLFQVQAVRGCFWEDFIDLGLQLANFFAFTNSSLNPVIYVFVGRLFRTKVWELYKQCTPKSLAPISSSHRKEIFQLFWRN
Molecule B1 had a Ki of 2030 nM.

Usually Ki stands for a dissociation constant, usually derived from enzyme kinetics or from competition with a known ligand. Low readings indicate tighter binding, high ones weaker binding.
